Molecular target: T1, human IL-13 R130Q variant (R110Q of the mature chain) (human, UniProt P35225 35-146, Biotinylated on amines (NHS-LC-biotin, 4:1) in ELISA, panning and competition assays. The letters are unchanged.)
T1 construct: R130Q counts from Met 1 of the signal peptide, R110Q on the mature chain; Bought from Peprotech; also called IL-13 R110Q; b-R130Q
Experiment: single-point (10 nM) phage Fab ELISA on biotinylated IL-13 R130Q

B1: Phage # 54 Fab (IL-13-142 library) (Fab, V domains shown)
VH: QVTLKESGPVLVKPTETLTLTCTVSGFSLSTYGMGVGWIRQPPGKALEWLAHIWWDDVKRYNPALKSRLTISKDTSKSQVVLTMTNMDPVDTATYYCARMGSDYDVWFDYWGQGTLVTVSS
VL: DIQMTQSPSTLSASVGDRVTITCRASKSISKYLAWYQQKPGKAPKLLIYSGSTLQSGVPSRFSGSGSGTEFTLTISSLQPDDFATYYCQQHDWGPYTFGGGTKVEIK
notes: Fab on phage pIX
- % of Lc16Hc7: 361%

B2: Phage # 13 Fab (IL-13-142 library) (Fab, V domains shown)
VH: QVTLKESGPVLVKPTETLTLTCTVSGFSLSTYGMGVGWIRQPPGKALEWLAHIWWDDVKRYNPALKSRLTISKDTSKSQVVLTMTNMDPVDTATYYCARMGSDYDVWFDYWGQGTLVTVSS
VL: DIQMTQSPSTLSASVGDRVTITCRASKSISKYLAWYQQKPGKAPKLLIYSGSTLQSGVPSRFSGSGSGTEFTLTISSLQPDDFATYYCQQHEWGPYTFGGGTKVEIK
notes: Fab on phage pIX
- % of Lc16Hc7: 196%

B3: Phage # 30 Fab (IL-13-142 library) (Fab, V domains shown)
VH: QVTLKESGPVLVKPTETLTLTCTVSGFSLSTYGMGVGWIRQPPGKALEWLAHIWWDDVKRYNPALKSRLTISKDTSKSQVVLTMTNMDPVDTATYYCARMGSDYDVWFDYWGQGTLVTVSS
VL: DIQMTQSPSTLSASVGDRVTITCRASKSISKYLAWYQQKPGKAPKLLIYSGSTLQSGVPSRFSGSGSGTEFTLTISSLQPDDFATYYCQQHLWGPYTFGGGTKVEIK
notes: Fab on phage pIX
- % of Lc16Hc7: 140%

B4: Phage # 29 Fab (IL-13-142 library) (Fab, V domains shown)
VH: QVTLKESGPVLVKPTETLTLTCTVSGFSLSTYGMGVGWIRQPPGKALEWLAHIWWDDVKRYNPALKSRLTISKDTSKSQVVLTMTNMDPVDTATYYCARMGSDYDVWFDYWGQGTLVTVSS
VL: DIQMTQSPSTLSASVGDRVTITCRASKSISKYLAWYQQKPGKAPKLLIYSGSTLQSGVPSRFSGSGSGTEFTLTISSLQPDDFATYYCQQHWMAPYTFGGGTKVEIK
notes: Fab on phage pIX
- % of Lc16Hc7: 182%

B5: Phage # 31 Fab (IL-13-142 library) (Fab, V domains shown)
VH: QVTLKESGPVLVKPTETLTLTCTVSGFSLSTYGMGVGWIRQPPGKALEWLAHIWWDDVKRYNPALKSRLTISKDTSKSQVVLTMTNMDPVDTATYYCARMGSDYDVWFDYWGQGTLVTVSS
VL: DIQMTQSPSTLSASVGDRVTITCRASKSISKYLAWYQQKPGKAPKLLIYSGSTLQSGVPSRFSGSGSGTEFTLTISSLQPDDFATYYCQQHFRRPYTFGGGTKVEIK
notes: Fab on phage pIX
- % of Lc16Hc7: 288%

B6: Phage # 18 Fab (IL-13-142 library) (Fab, V domains shown)
VH: QVTLKESGPVLVKPTETLTLTCTVSGFSLSTYGMGVGWIRQPPGKALEWLAHIWWDDVKRYNPALKSRLTISKDTSKSQVVLTMTNMDPVDTATYYCARMGSDYDVWFDYWGQGTLVTVSS
VL: DIQMTQSPSTLSASVGDRVTITCRASKSISKYLAWYQQKPGKAPKLLIYSGSTLQSGVPSRFSGSGSGTEFTLTISSLQPDDFATYYCQQWDGGPYTFGGGTKVEIK
notes: Fab on phage pIX
- % of Lc16Hc7: 231%

B7: Phage # 15 Fab (IL-13-142 library) (Fab, V domains shown)
VH: QVTLKESGPVLVKPTETLTLTCTVSGFSLSTYGMGVGWIRQPPGKALEWLAHIWWDDVKRYNPALKSRLTISKDTSKSQVVLTMTNMDPVDTATYYCARMGSDYDVWFDYWGQGTLVTVSS
VL: DIQMTQSPSTLSASVGDRVTITCRASKSISKYLAWYQQKPGKAPKLLIYSGSTLQSGVPSRFSGSGSGTEFTLTISSLQPDDFATYYCQQPLDAPYTFGGGTKVEIK
notes: Fab on phage pIX
- % of Lc16Hc7: 154%

B8: Phage # 10 Fab (IL-13-142 library) (Fab, V domains shown)
VH: QVTLKESGPVLVKPTETLTLTCTVSGFSLSTYGMGVGWIRQPPGKALEWLAHIWWDDVKRYNPALKSRLTISKDTSKSQVVLTMTNMDPVDTATYYCARMGSDYDVWFDYWGQGTLVTVSS
VL: DIQMTQSPSTLSASVGDRVTITCRASKSISKYLAWYQQKPGKAPKLLIYSGSTLQSGVPSRFSGSGSGTEFTLTISSLQPDDFATYYCQQHLWGPYTFGGGTKVEIK
notes: Fab on phage pIX
- % of Lc16Hc7: 318%

B9: Phage # 01 Fab (IL-13-142 library) (Fab, V domains shown)
VH: QVTLKESGPVLVKPTETLTLTCTVSGFSLSTYGMGVGWIRQPPGKALEWLAHIWWDDVKRYNPALKSRLTISKDTSKSQVVLTMTNMDPVDTATYYCARMGSDYDVWFDYWGQGTLVTVSS
VL: DIQMTQSPSTLSASVGDRVTITCRASKSISKYLAWYQQKPGKAPKLLIYSGSTLQSGVPSRFSGSGSGTEFTLTISSLQPDDFATYYCQQHWWGPYTFGGGTKVEIK
notes: Fab on phage pIX
- % of Lc16Hc7: 222%

B10: Phage # 11 Fab (IL-13-142 library) (Fab, V domains shown)
VH: QVTLKESGPVLVKPTETLTLTCTVSGFSLSTYGMGVGWIRQPPGKALEWLAHIWWDDVKRYNPALKSRLTISKDTSKSQVVLTMTNMDPVDTATYYCARMGSDYDVWFDYWGQGTLVTVSS
VL: DIQMTQSPSTLSASVGDRVTITCRASKSISKYLAWYQQKPGKAPKLLIYSGSTLQSGVPSRFSGSGSGTEFTLTISSLQPDDFATYYCQQQDVGPYTFGGGTKVEIK
notes: Fab on phage pIX
- % of Lc16Hc7: 229%

B11: Phage # 09 Fab (IL-13-142 library) (Fab, V domains shown)
VH: QVTLKESGPVLVKPTETLTLTCTVSGFSLSTYGMGVGWIRQPPGKALEWLAHIWWDDVKRYNPALKSRLTISKDTSKSQVVLTMTNMDPVDTATYYCARMGSDYDVWFDYWGQGTLVTVSS
VL: DIQMTQSPSTLSASVGDRVTITCRASKSISKYLAWYQQKPGKAPKLLIYSGSTLQSGVPSRFSGSGSGTEFTLTISSLQPDDFATYYCQQHLDVPYTFGGGTKVEIK
notes: Fab on phage pIX
- % of Lc16Hc7: 171%

B12: Phage # 32 Fab (IL-13-142 library) (Fab, V domains shown)
VH: QVTLKESGPVLVKPTETLTLTCTVSGFSLSTYGMGVGWIRQPPGKALEWLAHIWWDDVKRYNPALKSRLTISKDTSKSQVVLTMTNMDPVDTATYYCARMGSDYDVWFDYWGQGTLVTVSS
VL: DIQMTQSPSTLSASVGDRVTITCRASKSISKYLAWYQQKPGKAPKLLIYSGSTLQSGVPSRFSGSGSGTEFTLTISSLQPDDFATYYCQQHLGTPYTFGGGTKVEIK
notes: Fab on phage pIX
- % of Lc16Hc7: 228%

B13: Phage # 22 Fab (IL-13-142 library) (Fab, V domains shown)
VH: QVTLKESGPVLVKPTETLTLTCTVSGFSLSTYGMGVGWIRQPPGKALEWLAHIWWDDVKRYNPALKSRLTISKDTSKSQVVLTMTNMDPVDTATYYCARMGSDYDVWFDYWGQGTLVTVSS
VL: DIQMTQSPSTLSASVGDRVTITCRASKSISKYLAWYQQKPGKAPKLLIYSGSTLQSGVPSRFSGSGSGTEFTLTISSLQPDDFATYYCQQHDPGPYTFGGGTKVEIK
notes: Fab on phage pIX
- % of Lc16Hc7: 313%

B14: Phage # 36 Fab (IL-13-142 library) (Fab, V domains shown)
VH: QVTLKESGPVLVKPTETLTLTCTVSGFSLSTYGMGVGWIRQPPGKALEWLAHIWWDDVKRYNPALKSRLTISKDTSKSQVVLTMTNMDPVDTATYYCARMGSDYDVWFDYWGQGTLVTVSS
VL: DIQMTQSPSTLSASVGDRVTITCRASKSISKYLAWYQQKPGKAPKLLIYSGSTLQSGVPSRFSGSGSGTEFTLTISSLQPDDFATYYCQQHELGPYTFGGGTKVEIK
notes: Fab on phage pIX
- % of Lc16Hc7: 196%

B15: Phage # 35 Fab (IL-13-142 library) (Fab, V domains shown)
VH: QVTLKESGPVLVKPTETLTLTCTVSGFSLSTYGMGVGWIRQPPGKALEWLAHIWWDDVKRYNPALKSRLTISKDTSKSQVVLTMTNMDPVDTATYYCARMGSDYDVWFDYWGQGTLVTVSS
VL: DIQMTQSPSTLSASVGDRVTITCRASKSISKYLAWYQQKPGKAPKLLIYSGSTLQSGVPSRFSGSGSGTEFTLTISSLQPDDFATYYCQQHDRGPYTFGGGTKVEIK
notes: Fab on phage pIX
- % of Lc16Hc7: 296%

B16: Phage # 05 Fab (IL-13-142 library) (Fab, V domains shown)
VH: QVTLKESGPVLVKPTETLTLTCTVSGFSLSTYGMGVGWIRQPPGKALEWLAHIWWDDVKRYNPALKSRLTISKDTSKSQVVLTMTNMDPVDTATYYCARMGSDYDVWFDYWGQGTLVTVSS
VL: DIQMTQSPSTLSASVGDRVTITCRASKSISKYLAWYQQKPGKAPKLLIYSGSTLQSGVPSRFSGSGSGTEFTLTISSLQPDDFATYYCQQHVSGPYTFGGGTKVEIK
notes: Fab on phage pIX
- % of Lc16Hc7: 320%

B17: Phage # 06 Fab (IL-13-142 library) (Fab, V domains shown)
VH: QVTLKESGPVLVKPTETLTLTCTVSGFSLSTYGMGVGWIRQPPGKALEWLAHIWWDDVKRYNPALKSRLTISKDTSKSQVVLTMTNMDPVDTATYYCARMGSDYDVWFDYWGQGTLVTVSS
VL: DIQMTQSPSTLSASVGDRVTITCRASKSISKYLAWYQQKPGKAPKLLIYSGSTLQSGVPSRFSGSGSGTEFTLTISSLQPDDFATYYCQQPLTHPYTFGGGTKVEIK
notes: Fab on phage pIX
- % of Lc16Hc7: 232%

B18: Phage # 21 Fab (IL-13-142 library) (Fab, V domains shown)
VH: QVTLKESGPVLVKPTETLTLTCTVSGFSLSTYGMGVGWIRQPPGKALEWLAHIWWDDVKRYNPALKSRLTISKDTSKSQVVLTMTNMDPVDTATYYCARMGSDYDVWFDYWGQGTLVTVSS
VL: DIQMTQSPSTLSASVGDRVTITCRASKSISKYLAWYQQKPGKAPKLLIYSGSTLQSGVPSRFSGSGSGTEFTLTISSLQPDDFATYYCQQWSDGPYTFGGGTKVEIK
notes: Fab on phage pIX
- % of Lc16Hc7: 276%

B19: Phage # 16 Fab (IL-13-142 library) (Fab, V domains shown)
VH: QVTLKESGPVLVKPTETLTLTCTVSGFSLSTYGMGVGWIRQPPGKALEWLAHIWWDDVKRYNPALKSRLTISKDTSKSQVVLTMTNMDPVDTATYYCARMGSDYDVWFDYWGQGTLVTVSS
VL: DIQMTQSPSTLSASVGDRVTITCRASKSISKYLAWYQQKPGKAPKLLIYSGSTLQSGVPSRFSGSGSGTEFTLTISSLQPDDFATYYCQQHVGGPYTFGGGTKVEIK
notes: Fab on phage pIX
- % of Lc16Hc7: 206%

B20: Phage # 27 Fab (IL-13-142 library) (Fab, V domains shown)
VH: QVTLKESGPVLVKPTETLTLTCTVSGFSLSTYGMGVGWIRQPPGKALEWLAHIWWDDVKRYNPALKSRLTISKDTSKSQVVLTMTNMDPVDTATYYCARMGSDYDVWFDYWGQGTLVTVSS
VL: DIQMTQSPSTLSASVGDRVTITCRASKSISKYLAWYQQKPGKAPKLLIYSGSTLQSGVPSRFSGSGSGTEFTLTISSLQPDDFATYYCQQHNDSPYTFGGGTKVEIK
notes: Fab on phage pIX
- % of Lc16Hc7: 238%

B21: Phage # 04 Fab (IL-13-142 library) (Fab, V domains shown)
VH: QVTLKESGPVLVKPTETLTLTCTVSGFSLSTYGMGVGWIRQPPGKALEWLAHIWWDDVKRYNPALKSRLTISKDTSKSQVVLTMTNMDPVDTATYYCARMGSDYDVWFDYWGQGTLVTVSS
VL: DIQMTQSPSTLSASVGDRVTITCRASKSISKYLAWYQQKPGKAPKLLIYSGSTLQSGVPSRFSGSGSGTEFTLTISSLQPDDFATYYCQQQDLGPYTFGGGTKVEIK
notes: Fab on phage pIX
- % of Lc16Hc7: 127%

— patent publication US20120045438A1 (Janssen / Centocor, published 2012)
